The target of the experiment is T1, FBXW24‐EGFP‐Strep II protein, purified from Sf9 (mouse, UniProt E9PXM9 1-466).
T1 construct: FBXW24 (F-box and WD-40 domain protein 24), mouse, gene ID 382106; also called FBXW24‐StrepII; in vitro purified FBXW24; source: Sf9 (Bac-to-bac baculovirus), purified (Ni-NTA); not shown: EGFP, C-terminal, kept; Strep II, C-terminal, kept
T1 sequence (looked up): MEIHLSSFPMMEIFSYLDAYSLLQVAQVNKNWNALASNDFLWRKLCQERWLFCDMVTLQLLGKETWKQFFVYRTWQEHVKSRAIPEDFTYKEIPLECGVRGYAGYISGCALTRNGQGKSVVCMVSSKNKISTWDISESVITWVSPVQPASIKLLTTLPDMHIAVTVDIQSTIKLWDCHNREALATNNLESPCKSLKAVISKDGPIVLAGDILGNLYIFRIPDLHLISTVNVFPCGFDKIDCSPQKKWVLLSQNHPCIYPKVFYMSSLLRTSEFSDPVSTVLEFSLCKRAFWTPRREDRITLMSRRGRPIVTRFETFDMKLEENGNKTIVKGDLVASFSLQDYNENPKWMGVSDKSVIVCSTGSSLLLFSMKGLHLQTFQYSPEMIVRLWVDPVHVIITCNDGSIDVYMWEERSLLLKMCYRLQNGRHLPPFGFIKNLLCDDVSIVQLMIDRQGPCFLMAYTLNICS
In words: co-IP; co-IP between in vitro purified proteins; 1 μg SYCP3‐Flag protein and/or FBXW24‐StrepII protein in each reaction. The following applies: both partners purified.

B1: SYCP3‐TagRFP‐Flag protein, purified from Sf9 (natural protein, mouse, UniProt P70281 1-254, looked up)
chain: MLRGCGDSDSSPEPLSKHLKMVPGGRKHSGKSGKPPLVDQPKKAFDFEKDDKDLSGSEEDVADEKAPVIDKHGKKRSAGIIEDVGGEVQNMLEKFGADINKALLAKRKRIEMYTKASFKASNQKIEQIWKTQQEEIQKLNNEYSQQFMNVLQQWELDIQKFEEQGEKLSNLFRQQQKIFQQSRIVQSQRMFAMKQIHEQFIKSLEDVEKNNDNLFTGTQSELKKEMAMLQKKVMMETQQQEMANVRKSLQSMLF
notes: SYCP3, synaptonemal complex lateral element protein; The purified protein ran as several bands, and the upper bands carried ubiquitin; also called SYCP3‐Flag; in vitro purified SYCP3; source: Sf9 (Bac-to-bac baculovirus), purified (Ni-NTA); not shown: TagRFP, C-terminal, kept; Flag, C-terminal, kept
As to B1, the binding result is recorded as “binds”.

The values above are taken from article PMC9299759, “FBXW24 controls female meiotic prophase progression by regulating SYCP3 ubiquitination” (Clinical and Translational Medicine, 2022).
